Test results as given in article PMC12302927.

What was measured:
Assay in all cases: co-IP; 293T cells co-transfected with HA-tagged STAT1 (WT, K193R, K584R) and FLAG-p300; band intensities quantified; which protein was precipitated not given
HA-tagged STAT1 (WT) = HA-tagged STAT1 (WT) (UniProt P42224)
HA-tagged STAT1 K193R = HA-tagged STAT1 K193R (UniProt P42224)
HA-tagged STAT1 K584R = HA-tagged STAT1 K584R (UniProt P42224)

In the case of FLAG-p300, Q09472 1-2414, the relative co-IP band intensity (HA-tagged STAT1 (WT)) was 0.202, the relative co-IP band intensity (HA-tagged STAT1 K193R) was 0.194 and the relative co-IP band intensity (HA-tagged STAT1 K584R) was 0.239.
